The values that follow come from patent US11141462B2, “Method for the treatment or prevention of osteoarthritis” (Chondropeptix B.V., priority 2016, dated 2021).

The test system of data set [1] is Osteoarthritis chondrocytes. Put plainly: BMP-7 rescue of OA-associated chondrocyte phenotype (FIG. 1). The class given is cell-based. The procedure: FIG. 1: BMP-7 rescues OA-associated chondrocyte phenotype. Osteoarthritis chondrocytes display a typical phenotype that is characterized by decreased expression of SOX9, COL2A1 and BAPX1/NKX3.2 and an increased expression of COX-2 and IL-6 mRNAs (see left panel).
Functional ALP enzyme activity in cell lysates and PGE2 secretion in the culture medium was also normalized upon BMP-7 treatment of OA chondrocytes (right panel).
Expression of indicated mRNAs was determined by RT-qPCR, relatively to control conditions (normalized for 28S rRNA expression). In graphs, error bars represent mean±SEM, statistical differences were calculated as compared to healthy condition. *=p<0.05.

Data set [2] deals with Isolated chondrocytes from OA patients. Put plainly: Treatment of isolated chondrocytes from OA patients, gene expression by qRT-PCR. It is filed as cell-based, human. Conditions: 1 nM, 24 h; qRT-PCR normalized for 28S rRNA; n=6. The procedure:
Isolated chondrocytes from OA patients (n=6) were treated with BMP-7 (1 nM) or the 12-mer peptide according to SEQ ID NO: 43 (1 nM) for 24 h. Pro-chondrogenic (FIG. 8A) and hypertrophic (FIGS. 8B, 8C and 8D) gene expression was determined via qRT-PCR and normalized for 28S rRNA levels.

Data set [3] concerns cartilage explants from OA patient's knee articular cartilage. Put plainly: Treatment of cartilage explants, hypertrophic gene expression by qRT-PCR. The class given is cell-based, human. To be noted: 1 nM, 24 h. The procedure: 4 mm 2 cartilage explants were taken from non-lesion areas of OA patient's knee articular cartilage (n=5) and randomly assigned to different experimental treatment conditions (4 explants per treatment group). After a 24 h equilibration period the explants were treated with BMP-7 (1 nM) or the 12-mer peptide according to SEQ ID NO: 43 (10 nM) for 24 h. Hypertrophic gene expression was determined via qRT-PCR and normalized for 28S rRNA levels. After treatment with BMP-7 or the 12 mer we observed a downregulation of pro-hypertrophic genes, such as Col10a1 (FIG. 9A) and MMP13 (FIG. 9B).
(In general: In qPCR the cycle at which signal appears reflects the starting amount.)

In the next data set the test system is Cartilage explants. Put plainly: Safranin-O staining of glycosaminoglycans in cartilage explants. It is filed as cell-based, human. Conditions: 1 nM, 14 days; explants from 2 patients; compared to control. The procedure:
Cartilage explants obtained from 2 patients were cultured for 14 days in the presence of BMP-7 (1 nM) or BMP-7 mimicking peptide […] (SEQ ID NO: 13) at 10 nM. Glycosaminoglycans (GAGs), an important component of the extracellular matrix (ECM), were stained with Safranin-O (in red) and other tissues are counterstained with Fast green (in green/blue).

The test system of data set [4] is Cartilage explants from OA patient's knee cartilage. Put plainly: PGE2 ELISA, cartilage explants. The class given is cell-based, human. Conditions: 1 nM, 14 days. The procedure: Cartilage explants of 3 mm^2 were taken from OA patient's knee cartilage (n=6) and treated with BMP-7 (1 nM), with peptide […] (SEQ ID NO: 13) at 10 nM or a scrambled irrelevant control peptide (10 nM) for 14 days. Prostaglandin E2 (PGE2) levels, a pro-hypertrophic factor, were determined via an ELISA.

The subject of data set [5] is Synovial tissue samples from OA patients. Kind of data set: PGE2 ELISA, synovial tissue samples. It is filed as cell-based, human. To be noted: 1 nM, 24 h. The procedure:
Synovial tissue samples from OA patients (n=6) were treated with BMP-7 (1 nM), with peptide […] (SEQ ID NO: 13) at 10 nM or a scrambled irrelevant control peptide (10 nM) for 24 h. PGE2 levels were determined via an ELISA.

Data set [6] deals with Hoffa's fat pad tissue samples from OA patients. Kind of data set: PGE2 ELISA, Hoffa's fat pad tissue samples. It is filed as cell-based, human. To be noted: 1 nM, 24 h. The procedure:
Hoffa's fat pad tissue samples from OA patients (n=6) were treated with BMP-7 (1 nM) with peptide […] (SEQ ID NO: 13) at 10 nM or a scrambled irrelevant control peptide (10 nM) for 24 h. PGE2 levels were determined via an ELISA.
(ELISA stands for enzyme-linked immunosorbent assay.)

Data set [7] deals with Meniscus tissue samples from OA patients. Kind of data set: PGE2 ELISA, meniscus tissue samples. The class given is cell-based, human. To be noted: 1 nM, 24 h. The procedure:
Meniscus tissue samples from OA patients (n=6) were treated with BMP-7 (1 nM) with peptide peptide […] (SEQ ID NO: 13) at 10 nM or a scrambled irrelevant control peptide (10 nM) for 24 h. PGE2 levels were determined via an ELISA.

Data set [8] deals with IL-1β-exposed chondrocytes. To be noted: cited from earlier work.
The test system of the next data set is OA chondrocytes. Conditions: cited from earlier work.
Another data set concerns OA in rats. To be noted: intra-articular administration; cited from earlier work.
The next data set has as its system OA patients. Conditions: phase-1 clinical trial in OA patients; intra-articular injection; cited from earlier work.
The mark [9] stands for this setting: BMP-7 1 nM, OA chondrocytes, RT-qPCR normalized for 28S rRNA.
The mark [10] stands for this setting: BMP-7 treatment of OA chondrocytes.

B1: BMP-7: full-length recombinant human bone morphogenetic protein-7; mature polypeptide of 139 amino acids (protein, listed as Homo sapiens)
chain: STGSKQRSQNRSKTPKNQEALRMANVAENSSSDQRQACKKHELYVSFRDLGWQDWIIAPEGYAAYYCEGECAFPLNSYMNATNHAIVQTLVHFINPETVPKPCCAPTQLNAISVLYFDDSSNVILKKYRNMVVRACGCH
Regarding B1, the “BMP-7 concentration at which OA chondrocyte-phenotype suppressive action is most pronounced” value in data set [1] was “around 1 nM”. For the same molecule, in [1] (setting [9]), the “BAPX1/NKX3.2 mRNA expression” value was “normalizing expression”, the “COL2A1 mRNA expression” value is reported as “normalizing expression”, the “COX-2 mRNA expression” value is recorded as “normalizing expression” and the “IL-6 mRNA expression” value was “normalizing expression”. Also, the “SOX9 mRNA expression” value in [1] (setting [9]) is “normalizing expression”. The “effects on the chondrocyte phenotype” value in [1] (BMP-7 concentrations higher than 1 nM (eg 10 nM or 100 nM)) is “opposite and negative effects”. For the same molecule, in data set [1] (setting [10]), the “Functional ALP enzyme activity in cell lysates” value is reported as “normalized” and the “PGE2 secretion in the culture medium” value is on record as “normalized”. Besides, in data set [2], the “COL10A1 (pro-hypertrophic) gene expression” value is listed as “downregulation”, the “COX-2 (pro-hypertrophic) gene expression” value is listed as “downregulation”, the “Col2a1 (pro-chondrogenic) gene expression” value is on record as “upregulation” and the “RUNX2 (pro-hypertrophic) gene expression” value is recorded as “downregulation”. Also, in [3], the Col10a1 gene expression entry is “downregulation” and the MMP13 gene expression result was “downregulation”. Also, the “Safranin-O intensity (glycosaminoglycans)” value in the data set with Cartilage explants was “increased Safranin-O intensity”. In [4], the PGE2 levels entry was “reduce PGE2 levels”. Further, the PGE2 levels entry in [5] is given as “reduce PGE2 levels”. In addition, in data set [6], the PGE2 levels result is recorded as “reduce PGE2 levels”. In [7], the PGE2 levels entry is “reduce PGE2 levels”. Further, in data set [8], the MMP13 expression result is on record as “decreases”. For the same molecule, the proteoglycan synthesis entry in the data set on OA chondrocytes is “stimulates”. Besides, in the data set with OA in rats, the “OA development and progression” value was “protects against OA development and delays progression of OA”. For the same molecule, the adverse events result in the data set with OA patients is “no serious adverse events”.
